According to US20260242467A1:

Target: NKG2A (human) (UniProt P26715)
Assay: flow cytometry on primary NK cells, 0 µM mabkine control of the competition assay

Sequence of UniProt P26715 (P26715 whole entry): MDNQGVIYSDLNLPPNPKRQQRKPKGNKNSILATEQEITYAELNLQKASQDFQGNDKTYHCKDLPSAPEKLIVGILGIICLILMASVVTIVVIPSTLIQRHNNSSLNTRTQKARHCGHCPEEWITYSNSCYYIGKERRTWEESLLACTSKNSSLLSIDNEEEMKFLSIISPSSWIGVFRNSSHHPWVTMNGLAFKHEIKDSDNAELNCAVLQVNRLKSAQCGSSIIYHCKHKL

- % of CD56+ cells stained (without mabkine): 26.5%
Substance: anti-NKG2A (S19004C) from Biolegend (antibody)
